Reference: US20050038229A1 (published 2005)
Changes are numbered by the printed parent chain.

B1: T14.22 (designed binder)
chain: VSDVPRDLEVVAATPSSRLISWRPGRTYSRYYRITYGETGGNSPVQEFTVPPWANTATISGLKPGVDYTIAVYAVTFPTGYPLTEMPISINYRT
B2: M12.09 (designed binder)
chain: B1 chain with S16T, T27A, Y32F, T79P, G80R, T94A
B3: T14.20 (designed binder)
chain: VSDVPRDLEVVAATPTSRLISWRNIYPIARYYRITYGETGGNSPVQEFTVPPWASIATISGLKPGADYTITVYAVTDKSDTYKYDDPISINYRT
B4: M12.16 (designed binder)
chain: B3 chain with N24P, I25G, Y26R, P27T, I28Y, A29S, T39A, A66V, D80G, K83R
B5: M12.22 (designed binder)
chain: VSDVPRDLRVVAATPTSRLISWRPASNPARYYRITYGETGGNSPVQEFTVPPWASVATIGGLKPGVDYTVTVYAVTAQTGHRLHDKPISINYRT
B6: M12.19 (designed binder)
chain: VSDVPRDLEVVAATPTGLLISWRNNQYTPRHYGITYGETGGKSPVQEFTVPELNPTATISRLKPGVDYTITVYAVTQNGTPRVIYGPISINYRT
B7: T10.15 (designed binder)
chain: VSDVPRDLEVVAATPTSLLISWHTERSFPRYYRITYGETGGNSPVQEFTVPPWGSIATISGLKPGVDYTITVYAVTEHYRDTGTGHPIPINYRT
B8: T14.21 (designed binder)
chain: VSDVPRDLEVVAATPTSRLISWRPGRTYSRYYRITYGETGGNSPVQEFTVPPWANTATISGLKPGVDYTITAYAVTYTHSTPMQDEPISINYRT
B9: M12.12 (designed binder)
chain: VSDVPSDLEVVAATPTSLLISWEQSPTYGRYYRITYGETGGNSPVQEFTVPGSKSTATISGRKPGADYTITVYAVTIEKDRIPLFGPISISYRT
B10: M12.24 (designed binder)
chain: VSDVPRDLEVVAATPTSRLISWNRSGLQSGYYRITYGETGGNSPVQEFTVPPWASIATISGLKPGVDYTITVYAVTPNVGRLDTRYPISIDCRT
B11: M12.08 (designed binder)
chain: VSDVPRDLEVVAATPTSLLNVPIIRYYRITYGETGGNSPVQEFTVPAPKAIATTSGLKPGVDYTITVYGVTSHRNHFHVETPISINYQA
notes: BC loop cell holds only II
B12: M12.14 (designed binder)
chain: VSDVPRDLKVVAATPTSRLISWTHDNVPARYYRITYGETGGNSPVQELTVPPWASIATISGLKPGVDYTITVYAVTLYTGNHRPEHPISINYRT
B13: T14.02 (designed binder)
chain: VSDVPRDLEVVVATPTSQLISWMTPHNHVRYYGITYGETGGNSPVQESTVPTGNATATISGLKPGVDYTITVYAVTPHHGHFDLEPPISINYRT
B14: M12.04 (designed binder)
chain: VSDVPGDLEVVAATPTSLLIGWSMTPNWPRYYRIAYGETGGDSPVQEFTVPPWASIAIIGGLKPGVDYTITVYAVTHRDTPISINYRT
notes: FG loop cell holds only HRDT

Molecular target: T1, tumor necrosis factor-α (TNF-α) (human, UniProt P01375 77-233, biotinylated with NHS-LC-LC-Biotin in the Kd and fluorescence assays; coupled to Epoxy-Activated Sepharose 6B in the column assays)
T1 construct: Bought from Pepro Tech; also called biotin-TNF-α; biotinylated TNF-α
T1 sequence (P01375 77-233 limits assumed): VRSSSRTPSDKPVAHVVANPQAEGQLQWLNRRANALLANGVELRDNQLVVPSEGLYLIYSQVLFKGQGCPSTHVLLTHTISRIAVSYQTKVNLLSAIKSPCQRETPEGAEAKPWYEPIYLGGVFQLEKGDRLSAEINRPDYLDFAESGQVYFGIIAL
Assay: 35S free protein + biotin-TNF-α, capture membrane, equilibrium fit
Protocol: Subsequently, each sample was loaded on a pre-soaked, SAM2R Biotin Capture Membrane (Promega, Madison, Wis.) using a 96 well, Easy-Titer™ ELIFA system (Pierce). Under vacuum, each spot was washed with 200 μL of HBS pH 7.4, 1% BSA, 0.05% Triton; next the entire membrane was rinsed in the buffer and air-dried. The membrane was exposed with a Storage Phosphor Screen (Molecular Dynamics, Sunnyvale, Calif.) overnight, and the intensities of the resulting individual spots were quantified using a STORM 860 phosphoimager with the ImageQuaNT densitometry program (Molecular Dynamics). The Kd of the binding was determined by fitting the equilibrium equation to the resulting binding curve (KaleidaGraph, Synergy Software); the error of the experiment was estimated from 2-4 independent experiments.

Question: With B1 as the binder, how does the Kd read?
Answer: 400 pM

Question: With B2 as the binder, how does the Kd read?
Answer: 400 pM

Question: Which Kd does the source give for B3 here?
Answer: 110 pM

Question: For B4, which Kd is on record?
Answer: 300 pM

Question: Which Kd does the source give for B5 here?
Answer: 700 pM

Question: B6 was tested. Which Kd did it give?
Answer: 600 pM

Question: How did the Kd turn out when B7 was run?
Answer: 4000 pM

Question: For B8, which Kd is on record?
Answer: 7000 pM

Question: How did the Kd turn out when B9 was run?
Answer: 200 pM

Question: B10 was tested. Which Kd did it give?
Answer: 1300 pM

Question: Which Kd does the source give for B11 here?
Answer: 600 pM

Question: How did the Kd turn out when B12 was run?
Answer: 1700 pM

Question: With B13 as the binder, how does the Kd read?
Answer: 500 pM

Question: B14 was tested. Which Kd did it give?
Answer: 20 pM
